Reference: article PMC6779754

These sequences were tested against GST-Bsx (zebrafish) (UniProt Q6R3Q6) (assay: EMSA). Details: EMSA: DIG Gel Shift Kit (Roche) per manufacturer, 2.0 pmol GST-Bsx with 32 fmol DIG-oligonucleotide or 8 fmol DIG-147bp probe; buffer, pH and temperature not ….
Chain of GST-Bsx (zebrafish) (Q6R3Q6 whole entry): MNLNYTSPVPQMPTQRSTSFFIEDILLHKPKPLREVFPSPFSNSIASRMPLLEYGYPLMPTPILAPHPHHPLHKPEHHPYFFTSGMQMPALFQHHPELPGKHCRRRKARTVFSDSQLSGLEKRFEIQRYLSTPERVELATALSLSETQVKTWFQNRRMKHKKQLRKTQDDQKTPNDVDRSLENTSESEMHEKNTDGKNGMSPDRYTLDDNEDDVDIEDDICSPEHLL

**Q.** For “GATGGAGAAGTGGACGATCGGCACACCTCCGCAGATGAAGCCCGGAGAGCCGGCGCTGCGCTCTTATGTGAACCCCATGAGTCCAGATTAGGCATCGTACAGGAGTGAGTGGCCAGATTGGGGTCAGACAGGGGGATAATCCAGAGA (double strand) [147bp P3 mutant]”, which binding is on record?
**A.** binds more weakly

**Q.** With “GATGGAGAAGTGGACGATCGGCACACCTCCGCAGATGAAGCCCGGAGAGCCGGCGCTGCGCTCTTATGTGAACCCCATGAGTCCATCGTAGGCAGATTACAGGAGTGAGTGGCCAGATTGGGGTCAGACAGGGGGATAATCCAGAGA (double strand) [147bp P4 mutant]” as the sequence, how does the binding read?
**A.** binds

**Q.** With “TCTCTGGATTATCCCCCTGTCTGACCCCAATCTGGCCACTCACTCCTGTAATCTGCCTAATCTGGACTCATGGGGTTCACATAAGAGCGCAGCGCCGGCTCTCCGGGCTTCATCTGCGGAGGTGTGCCGATCGTCCACTTCTCCATC (double strand) [wt147bp]” as the sequence, how does the binding read?
**A.** binds
